Measured values reported in article PMC3427180, “Zea mays Taxilin Protein Negatively Regulates Opaque-2 Transcriptional Activity by Causing a Change in Its Sub-Cellular Distribution” (PLoS ONE, 2012).

Molecular target: T1, Full length Zea mays Opaque-2 (ZmO2) fused to the GAL4 DNA binding domain (Zea mays, UniProt P12959 1-453)
T1 sequence (looked up): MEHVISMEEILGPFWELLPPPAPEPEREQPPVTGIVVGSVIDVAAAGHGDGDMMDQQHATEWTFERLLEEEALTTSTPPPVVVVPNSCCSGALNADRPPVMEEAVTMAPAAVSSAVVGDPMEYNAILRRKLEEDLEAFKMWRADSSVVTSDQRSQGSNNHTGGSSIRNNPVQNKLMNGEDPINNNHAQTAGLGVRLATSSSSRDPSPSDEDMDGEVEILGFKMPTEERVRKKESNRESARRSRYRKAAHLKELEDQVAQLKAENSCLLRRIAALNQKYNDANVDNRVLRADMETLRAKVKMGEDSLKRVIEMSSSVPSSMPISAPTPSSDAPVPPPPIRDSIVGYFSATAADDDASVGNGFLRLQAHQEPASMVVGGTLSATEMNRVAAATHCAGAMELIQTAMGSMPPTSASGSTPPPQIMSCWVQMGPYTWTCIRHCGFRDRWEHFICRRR
Assay: cell-based or functional assay

GUS/luciferase ratio from the z1C (22-kD zein) promoter reporter in onion epidermal cells; YFP-O2 co-expressed with CFP-Taxilin against YFP-O2 alone: 47%
B1: Full length ZmTaxilin fused to the GAL4 activation domain (natural protein, Zea mays, UniProt C0P5X2 1-425, looked up)
chain: MEGSPVARLPEANSLPDGFVPDSESSDTDAAPPSSAPIVDDAIDSDSPDATNPGGEETLSDPSLPASTAEDASSAAAAEALDTLCLDVVADPERALGEHGPTTAARGEGSLKENRASEQVGAPSDQKVVKGSGEPKRKVIKHSKLEKDKELFQLAQQYHKVVAERDQAIAVKDRLESLCREFQRQNKMLKEECQRVSTEGQNMRTELSEKFDHAIKGVSAKLEEQRVERISQLEENNTLRSKLKDLADQYNITQQKYAHQLKEKMLELELADLRLQQHQEKAAQEHTQMQLYAEQVSQLMTTEKNLRLQLASDGERFQHFQDALSKSNEVFETYKQEMEKMISVIKNLKKENEFLKGKCENSDIAIVKLIEERELTKKQIEKLKNQREKLESLCRTLQAERKQGPSASIPDAPSSQEVSATSQES
